According to patent US20120121559A1 (VALTED, published 2012):

How the values were obtained:
[1] = biological target: PARsylated PARP1 (recombinant PARP1 automodified in vitro), P09874
[2] = biological target: recombinant PARP1, non-PARsylated, P09874
[3] = biological target: PARsylated PARP1, endogenous protein of MCF7 cells, P09874
[4] = biological target: T1, PARIS (parkin interacting substrate) (human, UniProt Q6NUN9 1-644, limits assumed); test: immunoprecipitation of endogenous Iduna from MCF7 lysate, immunoblot
T1 construct: Negative control of the co-immunoprecipitation
T1 sequence (Q6NUN9 whole entry): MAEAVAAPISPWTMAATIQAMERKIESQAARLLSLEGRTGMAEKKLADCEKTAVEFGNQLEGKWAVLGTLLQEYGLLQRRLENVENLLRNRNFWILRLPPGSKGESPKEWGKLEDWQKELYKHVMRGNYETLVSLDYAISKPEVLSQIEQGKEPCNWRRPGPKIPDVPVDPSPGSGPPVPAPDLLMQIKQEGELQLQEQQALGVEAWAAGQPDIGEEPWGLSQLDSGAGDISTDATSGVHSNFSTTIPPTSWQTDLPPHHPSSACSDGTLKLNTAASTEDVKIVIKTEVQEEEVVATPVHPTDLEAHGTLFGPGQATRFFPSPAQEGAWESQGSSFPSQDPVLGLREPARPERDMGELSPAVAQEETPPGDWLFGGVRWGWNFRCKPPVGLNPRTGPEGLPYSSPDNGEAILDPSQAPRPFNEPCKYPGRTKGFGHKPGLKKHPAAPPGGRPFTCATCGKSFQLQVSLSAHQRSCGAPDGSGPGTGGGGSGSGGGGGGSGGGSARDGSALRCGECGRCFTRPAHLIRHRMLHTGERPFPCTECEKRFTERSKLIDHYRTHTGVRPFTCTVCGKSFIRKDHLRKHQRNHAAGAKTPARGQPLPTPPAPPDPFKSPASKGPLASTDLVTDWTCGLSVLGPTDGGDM

Chain of PARsylated PARP1 (recombinant PARP1 automodified in vitro), P09874 (P09874 whole entry, looked up): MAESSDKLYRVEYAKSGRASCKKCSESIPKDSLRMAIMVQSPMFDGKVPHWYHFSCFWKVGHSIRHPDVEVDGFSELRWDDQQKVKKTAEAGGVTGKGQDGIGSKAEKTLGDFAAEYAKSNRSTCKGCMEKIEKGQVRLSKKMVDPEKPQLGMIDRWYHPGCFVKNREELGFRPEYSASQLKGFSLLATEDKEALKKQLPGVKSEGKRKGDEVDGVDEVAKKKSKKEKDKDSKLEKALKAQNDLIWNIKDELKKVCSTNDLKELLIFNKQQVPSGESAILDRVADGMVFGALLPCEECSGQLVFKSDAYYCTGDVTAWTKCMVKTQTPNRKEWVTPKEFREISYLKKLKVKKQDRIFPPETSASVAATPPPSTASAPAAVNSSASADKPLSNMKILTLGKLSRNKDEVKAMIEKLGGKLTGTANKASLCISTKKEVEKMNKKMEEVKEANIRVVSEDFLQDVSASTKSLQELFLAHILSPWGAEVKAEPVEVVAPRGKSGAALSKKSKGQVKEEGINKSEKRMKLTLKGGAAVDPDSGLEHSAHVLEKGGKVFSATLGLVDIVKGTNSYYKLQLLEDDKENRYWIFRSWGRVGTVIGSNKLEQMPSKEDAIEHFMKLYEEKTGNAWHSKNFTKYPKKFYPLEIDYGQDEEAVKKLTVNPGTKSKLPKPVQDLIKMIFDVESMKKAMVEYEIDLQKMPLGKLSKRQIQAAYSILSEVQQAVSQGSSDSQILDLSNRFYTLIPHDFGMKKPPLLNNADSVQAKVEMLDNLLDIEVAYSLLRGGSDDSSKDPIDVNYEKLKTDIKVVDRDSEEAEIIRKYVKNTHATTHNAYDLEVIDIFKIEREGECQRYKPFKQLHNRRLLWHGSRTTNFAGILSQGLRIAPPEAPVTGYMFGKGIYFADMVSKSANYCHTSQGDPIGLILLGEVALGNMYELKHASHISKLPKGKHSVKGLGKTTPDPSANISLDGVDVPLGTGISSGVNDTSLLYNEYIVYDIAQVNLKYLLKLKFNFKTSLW
Chain of recombinant PARP1, non-PARsylated, P09874 (P09874 whole entry, looked up): as above
Chain of PARsylated PARP1, endogenous protein of MCF7 cells, P09874 (P09874 whole entry, looked up): as above

B1: GST-Iduna (protein)
chain: MEMAGCGEIDHSINMLPTNKKANESCSNTAPSLTVPECAICLQTCVHPVSLPCKHVFCYLCVKGASWLGKRCALCRQEIPEDFLDKPTLLSPEELKAASRGNGEYAWYYEGRNGWWQYDERTSRELEDAFSKGKKNTEMLIAGFLYVADLENMVQYRRNEHGRRRKIKRDIIDIPKKGVAGLRLDCDTNTVNLARESSADGADSGSAQTGASVQLAVPSSTRPLTSVDGQLTSPVTPSPDAGISLEDSFAHLQLSGDSIAERSHRGEGEEDHESPSSGRVPDTSVEETESDASSDSEDAPVVVAQHSLTQQRPLVPNGNQTVADQSDRSGTDRSVAGGGTMSVNVRSRRPDGQCTVIEV
in vitro ubiquitination assay (E1, UBCH 5c, ubiquitin), immunoblot with antibodies to ubiquitin [1]: Only PARsylated PARP1 is ubiquitinated by GST-Iduna
in vitro ubiquitination assay (E1, UBCH 5c, ubiquitin), immunoblot with antibodies to ubiquitin [2]: Only PARsylated PARP1 is ubiquitinated by GST-Iduna (non-PARsylated PARP1 is not ubiquitinated)

B2: GFP-Iduna (EGFP-tagged Iduna) (protein)
chain: B1 chain
in vitro ubiquitination assay on anti-GFP immunoprecipitates, immunoblot with antibodies to PAR and ubiquitin [3]: only GFP-Iduna is capable of polyubiquitination of PARsylated PARP1

B3: human Iduna (RNF146) (enzyme)
chain: MAGCGEIDHSINMLPTNKKANESCSNTAPSLTVPECAICLQTCVHPVSLPCKHVFCYLCVKGASWLGKRCALCRQEIPEDFLDKPTLLSPEELKAASRENGEYAWYYEGRNGWWQYDERTSRELEDAFSKGKKNTEMLIAGFLYVADLENMVQYRRNEHGRRRKVKRDIIDIPKKGVAGLRLDCDANTVNLARESSADGADSVSAQSGASVQPLVSSVRPLTSVDGQLTSPATPSPDASTSLEDSFAHLQLSGDNTAERSHRGEGEEDHESPSSGRVPAPDTSIEETESDASSDSEDVSAVVAQHSLTQQRLLVSNANQTVPDRSDRSGTDRSVAGGGTVSVSVRSRRPDGQCTVIEV
notes: also called hIduna; endogenous Iduna (MCF7 cells)
binding result [4]: no binding
